{"source": "paper PMC2665295", "key": {"[1]": {"target": "rat αCaMKII (Ca2+/calmodulin-dependent protein kinase II, α subunit) (rat) (UniProt P11275)", "sequence (P11275 whole entry)": "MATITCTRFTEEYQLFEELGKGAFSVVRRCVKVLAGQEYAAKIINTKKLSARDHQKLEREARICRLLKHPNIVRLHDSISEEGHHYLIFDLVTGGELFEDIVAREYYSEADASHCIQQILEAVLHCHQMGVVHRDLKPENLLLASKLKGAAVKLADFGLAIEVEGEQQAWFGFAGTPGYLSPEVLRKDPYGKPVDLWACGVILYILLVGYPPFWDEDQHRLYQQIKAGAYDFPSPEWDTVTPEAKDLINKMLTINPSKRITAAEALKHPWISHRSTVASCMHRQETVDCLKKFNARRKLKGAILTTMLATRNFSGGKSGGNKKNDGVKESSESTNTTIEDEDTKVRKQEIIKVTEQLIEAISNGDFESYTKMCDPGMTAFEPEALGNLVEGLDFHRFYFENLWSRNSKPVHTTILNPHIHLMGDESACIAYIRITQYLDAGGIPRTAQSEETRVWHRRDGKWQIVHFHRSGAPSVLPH"}, "[2]": {"target": "rat αCaMKII (Ca2+/calmodulin-dependent protein kinase II, α subunit) (rat) (UniProt P11275)", "assay": "ITC"}, "[3]": {"target": "rat αCaMKII (Ca2+/calmodulin-dependent protein kinase II, α subunit) (rat) (UniProt P11275)", "assay": "ITC", "remark": "listed apart in the source"}, "[4]": {"target": "rat αCaMKII (Ca2+/calmodulin-dependent protein kinase II, α subunit) (rat) (UniProt P11275)", "assay": "ITC", "remark": "listed apart in the source"}, "[5]": {"target": "rat αCaMKII (Ca2+/calmodulin-dependent protein kinase II, α subunit) (rat) (UniProt P11275)", "assay": "ITC", "remark": "listed apart in the source"}}, "note": "Where two headings read alike, the source gives them in different places.", "data": [{"substance": "CaMCC, a chimeric molecule composed of two C-lobes of CaM", "values": [{"measurement": "activation of CaMKII (phosphorylation of syntide), K0.5", "setting": "[1]", "result": 1.4, "unit": "µM"}, {"measurement": "Kd", "setting": "[2]", "result": 370, "unit": "nM"}, {"measurement": "dH", "setting": "[2]", "result": -6.5, "unit": "kcal/mol"}, {"measurement": "stoichiometry N", "setting": "[2]", "result": 0.84}, {"measurement": "Kd", "setting": "[3]", "result": 360, "unit": "nM"}, {"measurement": "dH", "setting": "[3]", "result": -7.3, "unit": "kcal/mol"}, {"measurement": "stoichiometry N", "setting": "[3]", "result": 0.979}]}, {"substance": "CaMNN, a chimeric molecule composed of two N-lobes of CaM", "values": [{"measurement": "Kd1 (binding mode 1)", "setting": "[2]", "result": 0.064, "unit": "µM"}, {"measurement": "Kd2 (binding mode 2)", "setting": "[2]", "result": 0.34, "unit": "µM"}, {"measurement": "N1 (binding mode 1)", "setting": "[2]", "result": 0.26}, {"measurement": "N2 (binding mode 2)", "setting": "[2]", "result": 0.62}, {"measurement": "dH1 (binding mode 1)", "setting": "[2]", "result": 0.7, "unit": "kcal/mol"}, {"measurement": "dH2 (binding mode 2)", "setting": "[2]", "result": -18.1, "unit": "kcal/mol"}, {"measurement": "Kd1 (binding mode 1)", "setting": "[3]", "result": 18, "unit": "nM"}, {"measurement": "Kd2 (binding mode 2)", "setting": "[3]", "result": 360, "unit": "nM"}, {"measurement": "N1 (binding mode 1)", "setting": "[3]", "result": 0.36}, {"measurement": "N2 (binding mode 2)", "setting": "[3]", "result": 0.61}, {"measurement": "dH1 (binding mode 1)", "setting": "[3]", "result": -6.3, "unit": "kcal/mol"}, {"measurement": "dH2 (binding mode 2)", "setting": "[3]", "result": -14.7, "unit": "kcal/mol"}]}, {"substance": "wild-type calmodulin (from UniProt P0DP23 1-149) (natural protein; other documents disagree on this pair)", "values": [{"measurement": "Kd", "setting": "[2]", "result": 1320, "unit": "nM"}, {"measurement": "dH", "setting": "[2]", "result": -12.8, "unit": "kcal/mol"}, {"measurement": "stoichiometry N", "setting": "[2]", "result": 0.83}, {"measurement": "dH", "setting": "[4]", "result": -11.1, "unit": "kcal/mol"}, {"measurement": "stoichiometry N", "setting": "[4]", "result": 1.08}, {"measurement": "Kd", "setting": "[5]", "result": 1900, "unit": "nM"}, {"measurement": "dH", "setting": "[5]", "result": 1.7, "unit": "kcal/mol"}, {"measurement": "stoichiometry N", "setting": "[5]", "result": 0.823}]}]}
